Experimental data as given in US20200223910A1 (STERLING IP, published 2020).
Positions count from the first letter of the chain named. Names and notes keep the numbering of the source. Values belong to the binder of their own block, whether it stands above or below them.

Legend:
human TNC rCd4-His-FBG [1] = molecular target: T1, human TNC rCd4-His-FBG (rat; human, UniProt P05540 209-391; P24821 1974-2201, limits assumed); assay: SPR BIAcore T200, 37 C, IgG4 captured on anti-human Fc, rCd4-His-FBG injected, 1:1 fit; relative to theoretical Rmax
T1 construct: domain: domains 3 and 4;domain: FBG; C-terminal FBG fusion made in HEK293F cells; biotinylated in the ELISA and HTRF assays; also called Hu TNC; hTNC; not shown: 6His tag
T1 sequence (chain (part 1 of 2), looked up): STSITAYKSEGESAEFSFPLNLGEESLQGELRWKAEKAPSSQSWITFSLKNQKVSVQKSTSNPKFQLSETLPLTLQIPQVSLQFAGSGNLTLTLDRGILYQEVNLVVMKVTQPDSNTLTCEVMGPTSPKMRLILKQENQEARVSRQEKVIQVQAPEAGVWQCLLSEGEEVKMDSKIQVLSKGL
T1 sequence (chain (part 2 of 2), looked up): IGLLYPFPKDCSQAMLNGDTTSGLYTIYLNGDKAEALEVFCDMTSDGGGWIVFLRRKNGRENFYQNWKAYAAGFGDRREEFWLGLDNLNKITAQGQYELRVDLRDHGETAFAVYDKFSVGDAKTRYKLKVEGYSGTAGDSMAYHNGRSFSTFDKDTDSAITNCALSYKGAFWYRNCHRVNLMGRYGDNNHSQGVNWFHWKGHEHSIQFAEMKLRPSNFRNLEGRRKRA
Method: (§1) For the kinetic assay ˜1,500-1,900 response units (RU) of anti-human Fc IgG (GE, BR-1008-39) was immobilised in all flow-cells (FC1-4) on a Series S CM5 sensor chip (BR-1005-30) using EDC/NHS cross-linking chemistry according to the amine coupling kit protocol (GE, BR-1000-50). […] Antibody capture levels ranged typically from 70 RU (for TNR interactions) to 90 RU (for TNC interactions).
(§2) A 1:1 dilution series of antigen in HBS-P+ (30 nM of human and mouse TNC rCd4-His-FBG and 480 nM of human TNR rCd4-His-FBG) was injected with a flow-path via the reference flow cell (FC1 and FC3, respectively) and the antibody capture flow cell (FC2 and FC4, respectively) with a flow rate of 30 μl/min. The association and dissociation phases were measured over a 3.5 and 30 min time period, respectively, for human and mouse TNC rCd4-His-FBG, and 2 and 8 min time period for human TNR rCd4-His-FBG. For interaction analysis with human and mouse TNC rCD4-His-FBG regeneration of free capture antibody surfaces after each antigen injection was done by injection of 3 M MgCl 2 for 60 s and for each sample injection a fresh NSCT antibody was captured. Carry over of antigen was prohibited by an extra needle wash step with 50% DMSO before every injection. Runs were performed at the more physiologically relevant temperature of 37° C.
(§3) Kinetic parameters were determined by reference cell subtraction and fitting the sensorgram experimental data to a 1:1 interaction model using the BIAcore T200 Evaluation software version 2.0.

human TNR rCd4-His-FBG [2] = molecular target: T2, human TNR rCd4-His-FBG (rat; human, UniProt P05540 209-391; Q92752 1128-1358, limits assumed); assay: as above
T2 construct: domain: domains 3 and 4;domain: FBG; also called Hu TNR; hTNR; not shown: 6His tag
T2 sequence (chain (part 1 of 2), looked up): T1 sequence (chain (part 1 of 2), looked up)
T2 sequence (chain (part 2 of 2), looked up): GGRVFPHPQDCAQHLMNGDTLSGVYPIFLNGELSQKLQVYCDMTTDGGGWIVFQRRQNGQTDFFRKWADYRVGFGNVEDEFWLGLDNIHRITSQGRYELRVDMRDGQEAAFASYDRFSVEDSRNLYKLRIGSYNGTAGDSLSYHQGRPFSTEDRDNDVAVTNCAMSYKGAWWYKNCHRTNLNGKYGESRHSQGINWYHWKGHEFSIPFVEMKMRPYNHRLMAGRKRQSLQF
Method: as §1, §2, §3

mouse TNC rCd4-His-FBG [3] = molecular target: T3, mouse TNC rCd4-His-FBG (rat; mouse, UniProt P05540 209-391; Q80YX1 1883-2110, limits assumed); assay: as above
T3 construct: domain: domains 3 and 4;domain: FBG; Biotinylated in the capture ELISA; also called Mu TNC; mTNC; not shown: 6His tag
T3 sequence (chain (part 1 of 2), looked up): T1 sequence (chain (part 1 of 2), looked up)
T3 sequence (chain (part 2 of 2), looked up): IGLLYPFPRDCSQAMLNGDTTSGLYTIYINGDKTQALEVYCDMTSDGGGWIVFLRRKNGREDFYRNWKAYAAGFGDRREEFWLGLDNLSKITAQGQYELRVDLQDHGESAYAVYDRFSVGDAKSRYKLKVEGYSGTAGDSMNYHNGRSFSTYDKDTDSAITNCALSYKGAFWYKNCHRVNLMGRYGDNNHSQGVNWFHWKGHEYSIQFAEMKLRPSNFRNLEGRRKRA
Method: as §1, §2, §3

human TNC rCd4-His-FBG [4] = molecular target: T1, human TNC rCd4-His-FBG; assay: SPR BIAcore T200, 37 C, IgG4 captured on anti-human Fc, rCd4-His-FBG injected, 1:1 fit
Method: as §1, §2, §3

human TNR rCd4-His-FBG [5] = molecular target: T2, human TNR rCd4-His-FBG; assay: as above
Method: as §1, §2, §3

mouse TNC rCd4-His-FBG [6] = molecular target: T3, mouse TNC rCd4-His-FBG; assay: as above
Method: as §1, §2, §3

mouse TNC rCd4-His-FBG [7] = molecular target: T3, mouse TNC rCd4-His-FBG; assay: anti-FLAG capture DELFIA ELISA, scFv supernatant, biotinylated mouse rCd4-His-FBG
Method: E. coli clones harbouring scFv pSANG10 expression plasmids were induced in 96-well plates with auto-induction media as described previously (Schofield et al, 2007). E. coli supernatants were harvested for ELISA assays. ELISA used the DELFIA (dissociation enhanced lanthanide fluorescent immunoassay) system with Europium-labelled anti-FLAG antibody (Sigma, Aldrich, UK). Black immunosorb plates (Nunc) were coated overnight with anti-FLAG M2 antibody (Sigma, F3165, 5 μg/ml in PBS, 50 μl per well), in wells blocked by the addition of 2% milk powder, PBS (PBS-M, 300 μl per well). Plates were washed three times with PBS-T (PBS, 0.1% Tween-20) and three times with PBS followed by the addition of a 1:2 dilution of 96-well auto-induction culture supernatants containing expressed scFv in PBS-M (50 μl per well). The plates were incubated for 1 h, washed as above and biotinylated mouse or human rCd4-His-FBG ([…] in PBS-M, 50 μl) added to each well. Plates were incubated for a further 1 h, washed and Strepravidin-Eu added (Perkin Elmer, 1 μg/ml, PBS-M, 50 μl), incubated for 30 min, washed and DELFIA enhancement solution added (50 μl) and plates read on a Perkin Elmer Fusion plate reader (excitation=320 nm, emission 620 nm).

human TNC rCd4-His-FBG [8] = molecular target: T1, human TNC rCd4-His-FBG; assay: HTRF competition, scFv supernatant; competitor d2-labelled B12 IgG
Method: IgG antibodies were labelled using the d2 labelling kit (CisBio, 62D2DPEA) as directed by the manufacturer. Streptavidin europium cryptate (CisBio, 610SAKLA, Lot#25C) was used at a final concentration of 1.8 ng active moiety (SA) per 20 μl reaction as recommended by the manufacturer. Biotinylated rCd4-His-FBG was prepared using EZ-link Sulfo-NHS-LC-Biotin reagent (Thermo Scientific, 21327) the extent of biotinylation was quantified using biotinylation fluorescence quantitation kit (Thermo Scientific, 46610). Where appropriate, supernatants containing scFv (prepared as described above for ELISA assays) were added to the 384-well assay plate at a final dilution of 1/20 (i.e. ⅕ dilution in assay buffer followed by addition of 5 μl diluted sample to the 20 μl FRET assay). The concentrations of d2-labelled B12 IgG used for screening were 1.25 nM. Unless otherwise stated, biotinylated rCd4-His-FBG (biotin:protein ratio=1.8:1) was present at either 2.2 nM (in assays using the 2A5 IgG antibody) or 1 nM (in experiments using B12 IgG). Samples were incubated for approximately 1 h at room temperature and the FRET signal was determined using a BMG Pherastar instrument: excitation=320 nm; emission=620 nm and 665 nm; integration start time=60 μs; integration time=500 μs; 100 flashes per well. For competition assays containing culture supernatant, biotinylated rCd4-His-FBG antigen was pre-incubated with streptavidin europium cryptate for 45 min prior to addition of reagents to the assay plate. All FRET signals are presented as ΔR, where R =(E665/E620×104) and ΔR =(Rsample-Rbackground fluorescence).
Culture supernatants containing unlabelled scFv clones from affinity selected mutant libraries were tested for inhibition of the interaction between FBG and the fluorophore-labelled parental IgG antibody. […] The parental clones, expressed as scFvs in parallel with the affinity matured clones, were used as benchmarks.

B2: 165_13_D1 scFv (scFv, V domains shown)
VH: QVQLVESGGGLVQPGRSLRLSCAASGFTFDDYAMHWVRQAPGKGLEWVSGISGSGGSTYYADSVKGRFTISRDNAKNSLYLQMNSLRAEDTALYYCAKGTRGEGDTFDIWGQGTMVTVSS
VL: DIQMTQSPASLPTPVGDRVTITCRASQYIQGFLNWYQQKPGKAPKLLIYDASNLETGVPSRFSGSGSGTDFTLTISSLQPEDFATYYCQQSYSTPQTFGQGTKVDIKR
notes: scFv in E. coli supernatant
- fold improvement for mouse FBG binding against parent B12 (mouse TNC rCd4-His-FBG [7]): ≥ 4 fold

B5: 165_13_B6 scFv (scFv, V domains shown)
VH: B2 VH with T100Q, R101K
VL: B2 VL
notes: scFv in E. coli supernatant
- fold improvement for mouse FBG binding against parent B12 (mouse TNC rCd4-His-FBG [7]): ≥ 4 fold

B7: 165_13_B3 scFv (scFv, V domains shown)
VH: B2 VH with G99A, T100L, R101A, G102R, E103G, G104H
VL: B2 VL
notes: scFv in E. coli supernatant
- fold improvement for mouse FBG binding against parent B12 (mouse TNC rCd4-His-FBG [7]): ≥ 4 fold
- % inhibition of HTRF signal (human TNC rCd4-His-FBG [8]): ≥ 91%

B8: 165_13_B1 scFv (scFv, V domains shown)
VH: B2 VH with G99V, T100M, R101S, G102S, E103M, G104E, T106A
VL: B2 VL
notes: scFv in E. coli supernatant (pSANG10, FLAG-tagged)
- fold improvement for mouse FBG binding against parent B12 (mouse TNC rCd4-His-FBG [7]): ≥ 4 fold

B9: 165_13_A4 scFv (scFv, V domains shown)
VH: B2 VH with G99D, T100K, R101Y, G102P, E103V, G104L
VL: B2 VL
notes: scFv in E. coli supernatant
- fold improvement for mouse FBG binding against parent B12 (mouse TNC rCd4-His-FBG [7]): ≥ 4 fold
- % inhibition of HTRF signal (human TNC rCd4-His-FBG [8]): ≥ 91%

Next, values leading:

- SA, surface activity (human TNC rCd4-His-FBG [1]): 297%
- SA, surface activity (human TNR rCd4-His-FBG [2]): 233%
- SA, surface activity (mouse TNC rCd4-His-FBG [3]): 304%
- Kd (human TNC rCd4-His-FBG [4]): 0.443 nM
- koff (human TNC rCd4-His-FBG [4]): 0.0041 s⁻¹
- kon (human TNC rCd4-His-FBG [4]): 9.35e+06 M⁻¹ s⁻¹
- Kd (human TNR rCd4-His-FBG [5]): 53.1 nM
- koff (human TNR rCd4-His-FBG [5]): 0.058 s⁻¹
- kon (human TNR rCd4-His-FBG [5]): 1.11e+06 M⁻¹ s⁻¹
- Kd (mouse TNC rCd4-His-FBG [6]): 0.67 nM
- koff (mouse TNC rCd4-His-FBG [6]): 0.0042 s⁻¹
- kon (mouse TNC rCd4-His-FBG [6]): 6.28e+06 M⁻¹ s⁻¹
B1: IgG4 165_13_C3* (antibody, V domains shown)
VH: B2 VH with G99S, T100Y, R101Q, G102S, E103D, G104E, T106A
VL: B2 VL with A9S, P12S, T13A, P14S
notes: Hinge-modified IgG4 (S241P); neither is tied by name to C3* as tested; also called NSCT-141

- fold improvement for mouse FBG binding against parent B12 (mouse TNC rCd4-His-FBG [7]): ≥ 4 fold
- % inhibition of HTRF signal (human TNC rCd4-His-FBG [8]): ≥ 91%
B3: 165_13_C3 scFv (scFv, V domains shown)
VH: B2 VH with G99S, T100Y, R101Q, G102S, E103D, G104E, T106A
VL: B2 VL
notes: scFv in E. coli supernatant

- fold improvement for mouse FBG binding against parent B12 (mouse TNC rCd4-His-FBG [7]): ≥ 4 fold
- % inhibition of HTRF signal (human TNC rCd4-His-FBG [8]): ≥ 91%
B4: 165_13_E1 scFv (scFv, V domains shown)
VH: B2 VH with G99D, T100I, R101S, G102A, E103V, G104M, T106V, F107P, D108Q, I109T
VL: B2 VL
notes: scFv in E. coli supernatant

- fold improvement for mouse FBG binding against parent B12 (mouse TNC rCd4-His-FBG [7]): ≥ 4 fold
- % inhibition of HTRF signal (human TNC rCd4-His-FBG [8]): ≥ 91%
B6: 165_13_D4 scFv (scFv, V domains shown)
VH: B2 VH with R101V
VL: B2 VL
notes: scFv in E. coli supernatant

- fold improvement for mouse FBG binding against parent B12 (mouse TNC rCd4-His-FBG [7]): ≥ 4 fold
- % inhibition of HTRF signal (human TNC rCd4-His-FBG [8]): ≥ 91%
B10: 180_11_F5 scFv (scFv, V domains shown)
VH: B2 VH with G99V, T100M, G102T, E103G, G104L
VL: B2 VL
notes: scFv in E. coli supernatant
